“And” between values parts separate entries of the source, which are not always exact repeats. Equal values may be shown once. Read-outs that look alike come from different tables or passages of the source.
Key:
[1] = test system: nontumor-bearing mice; assay type: in vivo; conditions: for median survival / MTD: nontumor-bearing mice; for survival rate at 90 days post-treatment: n=8; for MTD: 90 days, n=8/cohort
Procedure: MTD was defined as the highest dose given to the animals allowing 100% survival with no significant weight loss >15% throughout the experiment. Nontumor-bearing mice were randomly divided into seven cohorts used to evaluate MTD, six treatments and one control (n = 8/cohort); see Table 1. […] Control mice received DOTATATE (4 × 0.3 nmol) on four consecutive days. The animals were followed for 90 days. Serum was analyzed for the biomarker neutrophil gelatinase-associated lipocalin (NGAL) using ELISA (R&D Systems, 450 nm).

[2] = test system: kidney; experiment: Renal dose-effect relation (logistic regression, LD50); assay type: in vivo, mice; conditions: death before 90 days
Procedure: (§1) Dosimetry was performed according to the MIRD schema by using the spherical nodes S-factors from the Olinda/EXM software. S-factors were interpolated from the actual weight of the organs and tissue. All organs and tissue were assumed to be spherical with a density of […]. Mean radiation absorbed doses were obtained as a function-injected mass of peptide, assuming a homogeneous distribution in the tumor and organs. […] Owing to the short path length of α-particles, only the self-dose within each organ was included. The threshold for lethality was determined with renal absorbed dose and injected activity as indicators. Logistic regression analysis was used to determine the LD50 for presumed renal toxicity-related death.
Data analyses, graphs, and calculations were performed in Prism-5. Mann-Whitney t test was used to calculate the significance. The results of statistical tests were considered significant when P was <0.05. Biodistribution data were expressed as mean ± standard deviation (SD) and tumor volume data as mean ± standard error (SEM). Binary logistic analysis (forced entry method) was performed with SPSS software (IBM SPSS statistics, version 20).

[3] = in vivo; conditions: male, athymic nu/nu, mouse, iv, 0.3 nmol, total radioactivity
[4] = test system: tumor and normal organs of mice; experiment: Radiation dosimetry (MIRD schema, Olinda/EXM spherical S-factors); assay type: in vivo; conditions: for mean radiation absorbed tumor dose: predicted from ^111In-DOTATATE tumor uptake, AR42J tumor-bearing mice; for mean radiation absorbed dose for femur: high-dose cohort
Procedure: Saturation of receptor-specific tumor uptake was investigated by determining the kinetics of the tumor uptake with increasing injected mass of peptide. The time-activity curves for the tumor and normal organs were fitted by single-exponential functions using Prism-5 (GraphPad). Goodness of fit was analyzed with the Pearson correlation coefficient R ^2 > 0.8. Both F test and the Aikake information criterion were used to decide on the complexity of the curves.
as §1

[5] = with L-lysine (35 mg), tumor-bearing mice, calculated

Compound: C[C@@H](O)[C@H](NC(=O)[C@@H]1CSSC[C@H](NC(=O)[C@@H](Cc2ccccc2)NC(=O)CN2CCN(CC(=O)O)CCN(CC(=O)O)CCN(CC(=O)O)CC2)C(=O)N[C@@H](Cc2ccc(O)cc2)C(=O)N[C@H](Cc2c[nH]c3ccccc23)C(=O)N[C@@H](CCCCN)C(=O)N[C@@H]([C@@H](C)O)C(=O)N1)C(=O)O [^213Bi-DOTATATE, metal not drawn]
- median survival ([1]; all treated cohorts except the high-dose without L-lysine): > 90 days
- median survival ([1]; high-dose without L-lysine, 28.7 ± 1.2 MBq): 24 days
- survival rate at 90 days post-treatment ([1]; high-dose(+), 28.3 ± 0.8 MBq, with L-lysine): 75%
- survival rate at 90 days post-treatment ([1]; high-dose(−), 28.7 ± 1.2 MBq, without L-lysine): 0%
- MTD ([1]; in absence of L-lysine): < 13.0 ± 1.6 MBq
- survival rate at 90 days post-treatment ([1]; low-dose(+), 13.2 ± 0.9 MBq, with L-lysine): 100%
- survival rate at 90 days post-treatment ([1]; low-dose(−), 13.0 ± 1.6 MBq, without L-lysine): 87.5%
- survival rate at 90 days post-treatment ([1]; medium-dose(+), 21.7 ± 1.9 MBq, with L-lysine): 100%
- survival rate at 90 days post-treatment ([1]; medium-dose(−), 20.7 ± 0.8 MBq, without L-lysine): 62.5%
- MTD ([1]; with L-lysine renal protection (35 mg i.p.)): 21.7 ± 1.9 MBq
- threshold LD5 kidney dose [2]: 11 ± 4 Gy
- LD50 mean renal radiation absorbed dose ([2]; mice with and without L-lysine): 20 Gy and 20 ± 8 Gy
- tissue uptake at 1 h ([3]; Renal activity): 17.4 ± 2.2 %ID/g
- tissue uptake at 10 min ([3]; Tumor uptake): 5.3 ± 2.8 %ID/g
- tissue uptake at 1 h ([3]; Tumor uptake): 6.5 ± 2.3 %ID/g
- mean radiation absorbed tumor dose ([4]; 0.1 nmol peptide): approximately 0.5 Gy/MBq
- mean radiation absorbed tumor dose ([4]; 0.3 nmol peptide): approximately 0.5 Gy/MBq
- mean radiation absorbed dose for femur ([4]; with pre-treatment of L-lysine): 1.3 Gy
- mean radiation absorbed dose for femur ([4]; without L-lysine): 1.0 Gy
- mean renal absorbed dose ([4]; high-dose(+) cohort, 28.3 ± 0.8 MBq): 16 Gy
- time-integrated activity coefficient in the kidney ([4]; mice pre-treated with L-lysine): 6.0 ± 2.4 min/g
- time-integrated activity coefficient in the kidney ([4]; mice without pre-treatment of L-lysine): 12.0 ± 3.7 min/g
- renal absorbed dose ([4]; nontumor-bearing animals, with L-lysine): 0.50 Gy/MBq
- renal absorbed dose ([4]; nontumor-bearing animals, without L-lysine): 1.0 Gy/MBq
- renal absorbed dose ([4]; tumor-bearing animals, with L-lysine): 0.56 Gy/MBq
- renal absorbed dose ([4]; tumor-bearing animals, without L-lysine): 1.1 Gy/MBq
- Radiation absorbed dose per administered activity, Adrenals, Total α [4, 5]: 5.60E-02 Gy/MBq
- Radiation absorbed dose per administered activity, Adrenals, Total β [4, 5]: 2.00E-03 Gy/MBq
- Radiation absorbed dose per administered activity, Adrenals, ^209Pb β [4, 5]: 1.30E-04 Gy/MBq
- Radiation absorbed dose per administered activity, Adrenals, ^209Tl β + γ [4, 5]: 4.00E-05 Gy/MBq
- Radiation absorbed dose per administered activity, Adrenals, ^213Bi α [4, 5]: 8.00E-04 Gy/MBq
- Radiation absorbed dose per administered activity, Adrenals, ^213Bi β [4, 5]: 1.80E-03 Gy/MBq
- Radiation absorbed dose per administered activity, Adrenals, ^213Po α [4, 5]: 5.49E-02 Gy/MBq
- Radiation absorbed dose per administered activity, Blood, Total α [4, 5]: 1.09E-01 Gy/MBq
- Radiation absorbed dose per administered activity, Blood, Total β [4, 5]: 6.00E-03 Gy/MBq
- Radiation absorbed dose per administered activity, Blood, ^209Pb β [4, 5]: 2.00E-04 Gy/MBq
- Radiation absorbed dose per administered activity, Blood, ^209Tl β + γ [4, 5]: 1.40E-04 Gy/MBq
- Radiation absorbed dose per administered activity, Blood, ^213Bi α [4, 5]: 1.60E-03 Gy/MBq
- Radiation absorbed dose per administered activity, Blood, ^213Bi β [4, 5]: 5.20E-03 Gy/MBq
- Radiation absorbed dose per administered activity, Femur, Total α [4, 5]: 4.20E-02 Gy/MBq
- Radiation absorbed dose per administered activity, Femur, Total β [4, 5]: 2.00E-03 Gy/MBq
- Radiation absorbed dose per administered activity, Femur, ^209Pb β [4, 5]: 1.00E-04 Gy/MBq
- Radiation absorbed dose per administered activity, Femur, ^209Tl β + γ [4, 5]: 4.00E-05 Gy/MBq
- Radiation absorbed dose per administered activity, Femur, ^213Bi α [4, 5]: 6.00E-04 Gy/MBq
- Radiation absorbed dose per administered activity, Femur, ^213Bi β [4, 5]: 1.60E-03 Gy/MBq
- Radiation absorbed dose per administered activity, Femur, ^213Po α [4, 5]: 4.13E-02 Gy/MBq
- Radiation absorbed dose per administered activity, Kidney, Total α [4, 5]: 5.33E-01 Gy/MBq
- Radiation absorbed dose per administered activity, Kidney, Total β [4, 5]: 2.60E-02 Gy/MBq
- Radiation absorbed dose per administered activity, Kidney, ^209Pb β [4, 5]: 1.40E-03 Gy/MBq
- Radiation absorbed dose per administered activity, Kidney, ^209Tl β + γ [4, 5]: 6.30E-04 Gy/MBq
- Radiation absorbed dose per administered activity, Kidney, ^213Bi α [4, 5]: 8.00E-03 Gy/MBq
- Radiation absorbed dose per administered activity, Kidney, ^213Bi β [4, 5]: 2.37E-02 Gy/MBq
- Radiation absorbed dose per administered activity, Kidney, ^213Po α [4, 5]: 5.25E-01 Gy/MBq
- Radiation absorbed dose per administered activity, Pancreas, Total α [4, 5]: 1.36E-01 Gy/MBq
- Radiation absorbed dose per administered activity, Pancreas, Total β [4, 5]: 5.00E-03 Gy/MBq
- Radiation absorbed dose per administered activity, Pancreas, ^209Pb β [4, 5]: 8.90E-04 Gy/MBq
- Radiation absorbed dose per administered activity, Pancreas, ^209Tl β + γ [4, 5]: 1.00E-04 Gy/MBq
- Radiation absorbed dose per administered activity, Pancreas, ^213Bi α [4, 5]: 2.00E-03 Gy/MBq
- Radiation absorbed dose per administered activity, Pancreas, ^213Bi β [4, 5]: 4.50E-03 Gy/MBq
- Radiation absorbed dose per administered activity, Pancreas, ^213Po α [4, 5]: 1.34E-01 Gy/MBq
- Radiation absorbed dose per administered activity, Stomach, Total α [4, 5]: 6.10E-02 Gy/MBq
